The values below come from the RNAGym collection of RNA variant scans (doi:10.7554/elife.80360).

The chains are these.
B1: Hairpin Ribozyme (parent)
chain: GUCCUCUUUCACGUGCGCGUGAAAGAGAGAAGUGAACCAGAGAAACACACGUUGUGGUAUAUUACCUGGUA

The variants in this data set derive from B1. The data set can be described thus: self-cleavage, relative activity (ratio to wild type); higher = more cleavage; co-transcriptional.
On to GUCCUCUUUAACGUGCGCGUGAAAGAGAGAAGUGAACCAGAGAAACACACGUUGUGGUCUAUUACCUGGUA [C10A A59C], for which the self-cleavage was 0.192. The result for GUCCUCUUUAACGUGCGCGUGAAAGAGAGAAGUGAACCAGAGAAACACACGUUGUGGUGUAUUACCUGGUA [C10A A59G] reads 0.149; that for GUCCUCUUUAACGUGCGCGUGAAAGAGAGAAGUGAACCAGAGAAACACACGUUUUGGUAUAUUACCUGGUA [C10A G54U], 0.426; that for GUCCUCUUUAACGUGCGCGUGAAAGAGAGAAGUGAACCAGAGAAACACACGUUAUGGUAUAUUACCUGGUA [C10A G54A], 0.338. The result for GUCCUCUUUAACGUGCGCGUGAAAGAGAGAAGUGAACCAGAGAAACACACGUUGUGGUAUAUUAGCUGGUA [C10A C65G] reads 0.388; that for GUCCUCUUUAACGUGCGCGUGAAAGAGAGAAGUGAACCAGAGAAACACACGUUGUGGUAUAUUAACUGGUA [C10A C65A], 0.556; that for GUCCUCUUUAACGUGCGCGUGAAAGAGAGAAGUGAACCAGACAAACACACGUUGUGGUAUAUUACCUGGUA [C10A G42C], 0.235. The result for GUCCUCUUUAACGUGCGCGUGAAAGAGAGAAGUGAACCAGAUAAACACACGUUGUGGUAUAUUACCUGGUA [C10A G42U] reads 0.268; that for GUCCUCUUUAACGUGCGCGUGAAAGAGAGAAGUGAACCAGAGAAACACAUGUUGUGGUAUAUUACCUGGUA [C10A C50U], 0.349. Consider GUCCUCUUUAACGUGAGCGUGAAAGAGAGAAGUGAACCAGAGAAACACACGUUGUGGUAUAUUACCUGGUA [C10A C16A], for which the self-cleavage amounted to 0.907. The result for GUCCUCUUUAACGUGGGCGUGAAAGAGAGAAGUGAACCAGAGAAACACACGUUGUGGUAUAUUACCUGGUA [C10A C16G] reads 0.527; that for GUCCUCUUUAACGUGCGCGUGAAAGAGAGAAGUGAACCAGAGAUACACACGUUGUGGUAUAUUACCUGGUA [C10A A44U], 0.139; that for GUCCUCUUUAACGUGCGCGUGAAAGAGAGAAGUGAACCAGAGACACACACGUUGUGGUAUAUUACCUGGUA [C10A A44C], 0.141. The same measure for GUCCUCUUUAACGUGCGCCUGAAAGAGAGAAGUGAACCAGAGAAACACACGUUGUGGUAUAUUACCUGGUA [C10A G19C]: 0.509. The result for GUCCUCUUUAACGUGCGCAUGAAAGAGAGAAGUGAACCAGAGAAACACACGUUGUGGUAUAUUACCUGGUA [C10A G19A] reads 0.761; that for GUCCUCUUUAACGUGCGCGUGAAAGAGAGAAGUGAACCAGAGAAACACUCGUUGUGGUAUAUUACCUGGUA [C10A A49U], 0.172; that for GUCCUCUUUAACGUGCGCGUGAAAGAGAGAAGUGAACCAGAGAAACACACGUUGUGGUAUAUUACCUGUUA [C10A G69U], 0.14. As to GUCCUCUUUAACGUGCGCGUGAAAGAGAGAAAUGAACCAGAGAAACACACGUUGUGGUAUAUUACCUGGUA [C10A G32A], the self-cleavage came to 0.161. The same measure for GUCCUCUUUAACGUGCGCGUGAAAGAGAGAAGUGAACCAGAGAAACACACGUUGUGGUAUAUUACCUUGUA [C10A G68U]: 0.201; for GUCCUCUUUAACCUGCGCGUGAAAGAGAGAAGUGAACCAGAGAAACACACGUUGUGGUAUAUUACCUGGUA [C10A G13C]: 0.411. With GUCCUCUUUAACAUGCGCGUGAAAGAGAGAAGUGAACCAGAGAAACACACGUUGUGGUAUAUUACCUGGUA [C10A G13A], the self-cleavage was determined as 0.501. The same measure for GUCCUCUUUAACGUGCGCGUGAAAGAGAGAAGUGAACCAUAGAAACACACGUUGUGGUAUAUUACCUGGUA [C10A G40U]: 0.141; for GUCCUCUUUAACGUGCGCGUGAAAGAGAGAAGUGAACCAAAGAAACACACGUUGUGGUAUAUUACCUGGUA [C10A G40A]: 0.219.

For GUCCUCUUUAACGUGCGCGUGAAAGAGAGAAGUGAACCAGAGCAACACACGUUGUGGUAUAUUACCUGGUA [C10A A43C], the self-cleavage is 0.0904. The same measure for GUCCUCUUUAACGUGCGCGUGAAAGAGAGAAGUGAACCAGAGGAACACACGUUGUGGUAUAUUACCUGGUA [C10A A43G]: 0.132. The result for GUCCUCUUUAACGUGCGCGUGAAAGAGAGAAGUGAACCAGAGAAACACACUUUGUGGUAUAUUACCUGGUA [C10A G51U] reads 0.678; that for GUCCUCUUUAACGUGCGCGUGAAAGAGAGAAGUGAACCAGAGAAACACACGUUGUGGUAUAUUACCUGGUG [C10A A71G], 0.915. The same measure for GUCCUCUUUAACGUGCGCGUGAAAGAGAGAAGUGAACCAGAGAAACACACGUUGUGGUAUAUUACCUGGUC [C10A A71C]: 1.16; for GUCCUCUUUAACGUGCCCGUGAAAGAGAGAAGUGAACCAGAGAAACACACGUUGUGGUAUAUUACCUGGUA [C10A G17C]: 0.489. As to GUCCUCUUUAACGUGCGCGUGAAAGAGAGAAGUGAAACAGAGAAACACACGUUGUGGUAUAUUACCUGGUA [C10A C37A], the self-cleavage was 0.271.

Regarding GUCCUCUUUAACGUGCGCGUGAAAGAGAGAAGUGAACCAGAGAAACACACGUUGUGGUAUAUUCCCUGGUA [C10A A64C], the self-cleavage was 0.185.

On to GUCCUCUUUAACGUGCGGGUGAAAGAGAGAAGUGAACCAGAGAAACACACGUUGUGGUAUAUUACCUGGUA [C10A C18G], for which the self-cleavage is 0.791. Take GUCCUCUUUAACGUGCGAGUGAAAGAGAGAAGUGAACCAGAGAAACACACGUUGUGGUAUAUUACCUGGUA [C10A C18A]: the self-cleavage came out at 0.708. The result for GUCCUCUUUAACGUGCGUGUGAAAGAGAGAAGUGAACCAGAGAAACACACGUUGUGGUAUAUUACCUGGUA [C10A C18U] reads 0.809. The result for GUCCUCUUUAACGUGCGCGUGAAAGAGAGAAGUGAACCAGAGAAACCCACGUUGUGGUAUAUUACCUGGUA [C10A A47C] reads 0.334. For the variant GUCCUCUUUAACGUGCGCGUGAAAGAGAGAAGUGAACCAGAGAAACACACGUUGUGUUAUAUUACCUGGUA [C10A G57U], the self-cleavage stood at 0.221.

As for GUCCUCUUUAACGUGCGCGUGAAAGAGAGAAGUGAACCAGAGAAACACACGUUGUGCUAUAUUACCUGGUA [C10A G57C], the self-cleavage is 0.174.

In the case of GUCCUCUUUAACGCGCGCGUGAAAGAGAGAAGUGAACCAGAGAAACACACGUUGUGGUAUAUUACCUGGUA [C10A U14C], the self-cleavage was 0.888.
